Source: the nanobody polyreactivity screen of Harvey et al. (2022)

test: yeast display, Sf9 membrane polyspecificity reagent, FACS + sequencing; frameworks hold sequencing errors
Method in brief: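 Nanobodies came from a synthetic yeast display library in Saccharomyces cerevisiae BJ5465, induced with galactose for 36–48 hours and stained for 1 hour at 4 °C with 10% biotinylated, detergent-solubilized Sf9 membrane reagent. Cells were enriched on streptavidin microbeads and then FACS-sorted, with low and high (top ~1%) gates set on anti-HA fluorescence for expression and streptavidin fluorescence for reagent binding. Each polyreactivity label reflects the gate a clone came from. Genes were amplified by colony PCR, sequenced by MiSeq 2 × 250 and filtered by CDR length.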

Row | Sequence | polyreactivity (PSR sort gate)
1 | QVQLVESGGGLVQAGGSLRLSCAASGSTFLTNAMGWYRQAPGKERELVAAIRTSGGSTYYADSVKGRFTSSRDNAKKTVYVLMNSLKPEDTAVYYCAASYRRRRFSEYYYWGQGTQVTVAS | high polyreactivity
2 | QVQLVESGGGLVQAGGSLRLSCAASGSTFLTYAMGWYRQAPGKERELVAGISYSTGSTYYADSVKGRFTISRDNAKNTVYLQMHSLKPEDTAVYYCAADEWDGLRYYYYFNYEYWGQGTQVTVSS | low polyreactivity
3 | QVQLVESGGGLVQAGGSLRLSCAASGSTFLTYAMGWYRQAPGKERELVASISRSGSTNYADSVKGRFTISRDNAKNTVYLQLNSLKPEDTAVYYCAADHTRYSSSWYYKQYYYWGQGTQVTVSS | low polyreactivity
4 | QVQLVESGGGLVQAGGSLRLSCAASGSTFLVYAMGWYRQAPGKEMEFVAAISWSGGSTFYADSVKGRFTISRDNAKNTVYLQMNSLKPVDTAVYYCAARQAGYSGRKLYYWGQGTQVTVSS | low polyreactivity
5 | QVQLVESGGGLVQAGGSLRLSCAASGSTFLVYAMGWYRQAPGKERELVAAITRRSTSTFYADSVKGRFTISRVNAKNTVYLQMNSLKPEDTAVYYWAADTRFISRENYWGQGTQVTVSS | high polyreactivity
6 | QVQLVESGGGLVQAGGSLRLSCAASGSTFLVYAMGWYRQAPGKERELVAVIDNGGDTYYADSVKGRFTISRDNAKNTVYLQMNSLKPEDTEVYYCAADLSYLGYWEYDYWGQGTQVTVSS | low polyreactivity
7 | QVQLVESGGGLVQAGGSLRLSCAASGSTFLVYAMGWYRQAPGKERELVAVIDNGGDTYYADSVKGRFTISRDNAKNTVYLQMNSLKPEDTEVYYCAADMSYLGYWEYDSWGQGTQVTVSS | low polyreactivity
8 | QVQLVESGGGLVQAGGSLRLSCAASGSTFLWNAMGWYRPAPGKERELVAAISYSGGSTYYADSVKGRFTISRDNAKNTVYLQMNSLKPEVTAVYYCAKEWFYDPYPPGYDYWGQGTQVTVSS | low polyreactivity
9 | QVQLVESGGGLVQAGGSLRLSCAASGSTFLYNAMGWYRQAPGKERELVAAISTTGARTNYADSVKGRFTISRDNAKNTVYLQMNSLKPEDTAVYYCKDRRGHYWGQGTQVTVSS | high polyreactivity
10 | QVQLVESGGGLVQAGGSLRLSCAASGSTFLYNAMGWYRQAPGKERELVAAISWSGGSTYYADSVKGRFTISRDNAKNTVYLQMNSLKPEDTAVYYCNALSVPDYDYWGQGTQVTVSS | high polyreactivity
11 | QVQLVESGGGLVQAGGSLRLSCAASGSTFLYNAMGWYRQAPGKERELVAAITIGGGSTYYADSVKGRFTISRDNAKNTVYLQMNSLKPEDTAVYYCNKGSYYWWDPGSTYIDDNWGQGTQVTVSS | low polyreactivity
12 | QVQLVESGGGLVQAGGSLRLSCAASGSTFLYNTMGWSRQAPGKERELVATITSRGDRTYYADSVKGRFPISRENAKNTVYLQMNSLKPEDTADYYCAALLYIRSVGYDYWGQGPQVTVSS | low polyreactivity
13 | QVQLVESGGGLVQAGGSLRLSCAASGSTFLYNTMGWYRQAPGKESELVATITSRGDRTYYADSVKGRFTISRDNAKNTVYLQMNSLKPEDTAVYYCNAYGGNYPQSYRYYYWGQGTQVTVSS | low polyreactivity
14 | QVQLVESGGGLVQAGGSLRLSCAASGSTFLYYAMGWYRQAPGKERELVARITTRVGRTYYADSVKGRFTISRDNAKNTVYLQMNSLKPEDTAVYYCATGGSKEMDYWGQGTQVTVSS | high polyreactivity
15 | QVQLVESGGGLVQAGGSLRLSCAASGSTFLYYAMGWYRQAPGKERELVASITGSGSNTYYADSVKGRFTISRDNAKNTVYLQMNSLKREDTAVYYCATDPQSDIPSWLWYWGEYDYWGHGTQVTVSS | low polyreactivity
16 | QVQLVESGGGLVQAGGSLRLSCAASGSTFLYYAMGWYRQAPGKERELVAVITGAGGTNYADSVKGRFTISRDNAKKTVYLQMNSLKPEDTAVYYCAARSPGTRWGDYDYWGQGTQVTVSS | low polyreactivity
17 | QVQLVESGGGLVQAGGSLRLSCAASGSTFLYYTMGWYRQAPGKERELVAAITSGGDSNYADSVKGRFTISRDNAKNTVYLQMNSLKPEDTAVYYCNAEYTWSGTKIYTYKYDYWGQGTQVTVSS | low polyreactivity
18 | QVQLVESGGGLVQAGGSLRLSCAASGSTFNFNAMGWYRQAPGKERELVAAISFSGGSTYYADSVKGRFTISRDNAKNTVYLQMNSLKPEDTAVYYCRPYSRGYGYWGQGTQVTVSS | high polyreactivity
19 | QVQLVESGGGLVQAGGSLRLSCAASGSTFNGNDMGWYRQAPGKERELVATISDGGRTYYADSVKGRFTISRDNAKNTVYLQRNSLKPEDTAVYYCAAPVYVPRAWFYYWGQGTQVTVSS | low polyreactivity
20 | QVQLVESGGGLVQAGGSLRLSCAASGSTFNGNVMGWYRQAPGKERDFVAGISKSGGTTYYADSVKGRFTISRDNAKNTVYLQMNSLKPEDTAVYYCAARGRVRYYPQYYYWGQGTQVTVSS | high polyreactivity
21 | QVQLVESGGGLVQAGGSLRLSCAASGSTFNGYAMGWYRQAPGKERELVADISRGDRTNYADSVKGRFTISRDNAKNTVYLQMKSLKREDTAVYYCAKDWLTDDPDKDPSVEYDYWGQGTQVTVSS | low polyreactivity
22 | QVQLVESGGGLVQAGGSLRLSCAASGSTFNGYTMGCYRQAPGKEREFVATITFSDGSTYYADSVKGRFTISRDNAKNTVYLQMNSLKPEDTAVYYCNVDSPIGYDYWGQGTQVTVSS | low polyreactivity

Row | Sequence | polyreactivity (PSR sort gate)
23 | QVQLVESGGGLVQAGGSLRLSCAASGSTFNHYTMGWYIQAPGKERELVAAISSRGGGTYYADSVKGRFTISRDNAKNTVYLQMNSLKPEDTAVYYCAALISSGIRHSRDYWGQGTQVTVSS | high polyreactivity
24 | QVQLVESGGGLVQAGGSLRLSCAASGSTFNINAMGWYRQAPGKERELVAAISSRGGSTYYADSVKGRFTISRDNAKNTVYLQMNSLKPEDTAVYYCAASPRRVENAGRVRLYYWGQGTQVTVSS | high polyreactivity
25 | QVQLVESGGGLVQAGGSLRLSCAASGSTFNIYAMGWYRQAPGKERELVAAISGNGDRTYYADSVKGRFTISRDNAKNTVYLQMNSLKPEDTAVYYCAAKYYGWGQGTQVTVSS | high polyreactivity
26 | QVQLVESGGGLVQAGGSLRLSCAASGSTFNIYVMGWYRQAPGKERELVAAISTSGRTYYADSVKGRFTISRDNAKNTVYLQMNSLKPEDTAVYYCNAGYWVRKYYHGGYWGQGTQVTVSS | high polyreactivity
27 | QVQLVESGGGLVQAGGSLRLSCAASGSTFNKNAMGWYRQAPGNERELVAVISRSGGSTHYADSVKGRFTISRDNAKNTVYLQMNSLKPEDTAVYYCATPFSYRRRTSASPYLYDYWGQGTQVTVSS | high polyreactivity
28 | QVQLVESGGGLVQAGGSLRLSCAASGSTFNKYAMVWYRQAPGKERELVAAITGSGGRTYYADSVKGRFTISRDTAKNTVYLQMNSLKPEHTAVYYCNAGITHGYDYWGQGTQVSVSS | high polyreactivity
29 | QVQLVESGGGLVQAGGSLRLSCAASGSTFNLYAIGWYRQAPGKEREFVAAIRGRGGNTYADSVKRRFTISRDNAKNTVYLQMNSLKPEDTAVYYCAAPLLRDLRSPYSYKYWGQGTQVTVSS | low polyreactivity
30 | QVQLVESGGGLVQAGGSLRLSCAASGSTFNPYAMGWYRQAPGKERELVAAINSRGGSTYYADSVKGRFTISRDNAKNTVYLQMNSLKPEDSAVYYCAARTRRRTSAYEYWGQGTQVTVSS | high polyreactivity
31 | QVQLVESGGGLVQAGGSLRLSCAASGSTFNQYDMGWYRQAPGKERELVAAITWSGTSTYYADSVKGRFTISRDNAKNTVYLQMNSLTPEDTAVYYCAADDPFHSSCWTYRYGYWGQGTQVTVSS | low polyreactivity
32 | QVQLVESGGGLVQAGGSLRLSCAASGSTFNRNAMGWYRQAPGKERDLVAAISWRGDTTSYADSVKGRSTISRDNAKNTFYLQMNSLNPEDTAVYYCATAHDYAFYRYWYVPSEYNYWGQGTQVTVSS | low polyreactivity
33 | QVQLVESGGGLVQAGGSLRLSCAASGSTFNRYAMGWYRQAPGKARELVATNNSGTSTNYADSVKGRFTISRDNAKNTVYLQKNSLKPEDTAVYYCAKTFRRSVGGYGYEYWGQGTQVTVSS | low polyreactivity
34 | QVQLVESGGGLVQAGGSLRLSCAASGSTFNSNVMGWYRQAPGKERELVAAISRSGGNTYYADSVKGRFTISRDNAKNTVYLQMNSLKPEDTAVYYCNKAGRYPYDYWGQGTQVTVSS | high polyreactivity
35 | QVQLVESGGGLVQAGGSLRLSCAASGSTFNSYAMGWYRQAPGKERELVAAISRSGGRTYYADSVKGRFTISRDNAKNNVYLQMSSMKPEDTAVYYCAAVHNANRGYPFEYWGQGTQVTVSS | high polyreactivity
36 | QVQLVESGGGLVQAGGSLRLSCAASGSTFNVNAMGWYRQSPGKERELVAAITSSGGSTNYADSVKGRFTFSRDNAKYTVYLQMNSLNPEDTAFYYCAAYAIYFSRLNLGYDYWGQGTQVTVSS | low polyreactivity
37 | QVQLVESGGGLVQAGGSLRLSCAASGSTFNVYAMGWYRQAPGKERELVARISWSGGNTYYADSVKGRFTISRDNAKNTVYLQMNSLKPEDTAVYYCATKGYTGYAYRYGYWGQGTQVTVSS | high polyreactivity
38 | QVQLVESGGGLVQAGGSLRLSCAASGSTFNYNAMGWYRQAPGKERELVAAITYSGSSTYYADSVKGRFTISRDNAKNTVYLQMNSLKPEDTAVYYCAAPPYNRPGYGYDYWGQGTQVTVSS | high polyreactivity
39 | QVQLVESGGGLVQAGGSLRLSCAASGSTFPANAMGWYRQAPGKERELVAAISSVGSTNYADSVRGRFTLSRDNAKNTVYLQMNSLKPEDTAVYYCATQPTWYTVGDLDYWGQGTQVTVSS | low polyreactivity
40 | QVQLVESGGGLVQAGGSLRLSCAASGSTFPDNAMGWYRQAPGKERELVAAISFSSGSTYYADSVKGRFTISRDNAKNTVYLQMNSLKPEDTAVYYCAADSYPAYLGFVGFDYWGQGTQVTVSS | low polyreactivity
41 | QVQLVESGGGLVQAGGSLRLSCAASGSTFPDNAMGWYRQAPGKERELVAAISFSSGSTYYADSVKGRFTISRDNAKNTVYLQMNSLKPEDTAVYYCAVANPSPYEWIAYYYWGQGTQVTVSS | low polyreactivity
42 | QVQLVESGGGLVQAGGSLRLSCAASGSTFPFYAMGWYRQAPGKEREFVAVISSSGGSTYYADSVKGRFTISRDNAKNTVYLQMNSLKPEDTAVYYCARSYPGRWYDYWGQGTQVTVSS | high polyreactivity
43 | QVQLVESGGGLVQAGGSLRLSCAASGSTFPGNTMGSYRQAPGKERELVAAITWNGGSTYYADSVKGRFTISRDNAKNNVYLQMNRLKPEDTAVYYCATRARVTYYYWGLGTQVTVSS | high polyreactivity
